These results are taken from patent US20200010523A1 (INSTITUTE FOR CANCER RESEARCH, published 2020).

The target in the assay is T1, human Müllerian-inhibiting substance type II receptor (MISIIR) (human, UniProt Q16671 18-573).
T1 sequence (looked up): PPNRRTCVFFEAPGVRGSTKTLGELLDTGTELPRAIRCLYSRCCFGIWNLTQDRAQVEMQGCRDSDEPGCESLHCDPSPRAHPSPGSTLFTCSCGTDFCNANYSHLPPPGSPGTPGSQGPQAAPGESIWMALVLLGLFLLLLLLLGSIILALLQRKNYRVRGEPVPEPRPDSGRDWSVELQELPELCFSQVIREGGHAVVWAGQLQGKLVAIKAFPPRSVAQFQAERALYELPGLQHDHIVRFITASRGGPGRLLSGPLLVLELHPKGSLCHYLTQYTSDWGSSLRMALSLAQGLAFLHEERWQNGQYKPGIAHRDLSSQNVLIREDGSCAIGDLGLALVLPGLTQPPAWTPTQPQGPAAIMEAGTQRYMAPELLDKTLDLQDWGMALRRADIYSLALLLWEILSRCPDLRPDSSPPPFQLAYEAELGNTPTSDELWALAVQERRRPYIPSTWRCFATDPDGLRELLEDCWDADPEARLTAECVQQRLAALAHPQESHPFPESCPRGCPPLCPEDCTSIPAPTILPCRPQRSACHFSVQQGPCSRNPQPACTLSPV
Put plainly: cell-based or functional assay.

B1: Müllerian-inhibiting substance (MIS) (ligand)
chain: SAGATAADGPCALRELSVDLRAERSVLIPETYQANNCQGVCGWPQSDRNPRYGNHVVLLLKMQVRGAALARPPCCVPTAYAGKLLISLSEERISAHHVPNMVATECGCR
As to B1, the “expression of a luciferase reporter gene over background levels, 10 nM, 3-day assay, P19 reporter cell line” value was around 10 fold.
